In patent US20120172293A1 (Takeda / Millennium, published 2012):
Starred links: 1 amine or outer side, 2 acyl side, 3 side chain; linkers in the order of their positions; H or OH if unused. Non-standard residues stand in square brackets, D forms with d. Primed or numbered codes have the meaning given here. No end group written: not given here. *: point of attachment. Tyr(Me) = O-methyltyrosine, COc1ccc(C[C@H](N[*:1])C(=O)[*:2])cc1; Thr(Me) = O-methylthreonine, CO[C@H](C)[C@H](N[*:1])C(=O)[*:2]; Ala(piperidin-4-yl) = O=C([C@H](CC1CCN([*:3])CC1)N[*:1])[*:2]; Ser(Me)″ = O-methylserine, COC[C@H](N[*:1])C(=O)[*:2]; Phe(4-F) = N[C@@H](Cc1ccc(F)cc1)C(=O)O; 2Nal = N[C@@H](Cc1ccc2ccccc2c1)C(=O)O; Amidino = amidino group, N=C(N)*; Cha = N[C@@H](CC1CCCCC1)C(=O)O; 4Amb = NCc1ccc(C(=O)O)cc1; Nva = CCC[C@H](N)C(=O)O; 2Abz = Nc1ccccc1C(=O)O; Dap = NC[C@H](N)C(=O)O; Aib = CC(C)(N)C(=O)O; Inp = O=C(O)C1CCNCC1; Bz = O=C(c1ccccc1)*

T1: human Y2 receptor (human, UniProt P49146 1-381)
T1 sequence (looked up): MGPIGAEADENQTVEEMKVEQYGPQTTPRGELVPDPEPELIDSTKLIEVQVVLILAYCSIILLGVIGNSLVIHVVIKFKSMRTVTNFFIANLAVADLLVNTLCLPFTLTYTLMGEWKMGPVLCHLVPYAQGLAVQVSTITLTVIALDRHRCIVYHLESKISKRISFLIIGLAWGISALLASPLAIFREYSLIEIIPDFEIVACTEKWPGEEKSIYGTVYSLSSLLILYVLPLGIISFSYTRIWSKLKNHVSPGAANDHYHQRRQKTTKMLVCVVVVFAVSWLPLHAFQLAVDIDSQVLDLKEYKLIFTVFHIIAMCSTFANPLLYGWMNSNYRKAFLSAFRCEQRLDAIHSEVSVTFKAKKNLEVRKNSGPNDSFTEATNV


Key:
[1] = molecular target: human Y2 receptor (human) (UniProt P49146); assay: cell-based or functional assay
[2] = molecular target: human Y2 receptor (human) (UniProt P49146); assay: RBA: [125I]-PYY displacement, hY2R/CHO membranes
human Y2 receptor [3] = molecular target: T1, human Y2 receptor; assay: cell-based or functional assay
human Y2 receptor [4] = molecular target: T1, human Y2 receptor; assay: RBA: [125I]-PYY displacement, hY2R/CHO membranes
How it was run: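 Bound radioligand was collected by filtration on PEI-treated GF/C filters, washed with Tris/MgCl₂/NaCl/CHAPS buffer pH 7.4, and counted by scintillation; IC₅₀ values were calculated.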

GBA EC50 Ratio (vs PYY(3-36)), [35S]GTPγS [1] | IC50 Ratio (vs PYY(3-36)) [2] | GBA EC50 Ratio (vs PYY(3-36)), [35S]GTPγS (human Y2 receptor [3]) [ratio] | IC50 Ratio (vs PYY(3-36)) (human Y2 receptor [4]) [ratio] | Molecule
0.9 | 0.9 | – | – | [(PEG2)23, D-Pro24, Cha27,28,36, Aib31]-PYY(23-36) (peptide)
1.3 | 0.92 | – | – | Ac-[Lys(Me2)23, D-Pro24, Cha27,28,36, Aib31]-PYY(23-36) (peptide)
1.2 | 2.8 | – | – | Ac-[Aad23, D-Pro24, Cha27,28,36, Aib31]-PYY(23-36) (peptide)
31 | 20 | – | – | Ac-[D-Iva23, D-Pro24, Cha27,28,36, Aib31]-PYY(23-36) (peptide)
5 | 7.3 | – | – | Ac-[Hyp23, D-Pro24, Cha27,28,36, Aib31]-PYY(23-36) (peptide)
– | – | 15 | 19 | [2Abz]RH[Cha]INWITRQR[Cha]-NH2 (N-terminus assumed; SMILES CC[C@H](C)[C@H](NC(=O)[C@H](CC1CCCCC1)NC(=O)[C@H](Cc1c[nH]cn1)NC(=O)[C@H](CCCNC(=N)N)NC(=O)c1ccccc1N)C(=O)N[C@@H](CC(N)=O)C(=O)N[C@@H](Cc1c[nH]c2ccccc12)C(=O)N[C@H](C(=O)N[C@H](C(=O)N[C@@H](CCCNC(=N)N)C(=O)N[C@@H](CCC(N)=O)C(=O)N[C@@H](CCCNC(=N)N)C(=O)N[C@@H](CC1CCCCC1)C(N)=O)[C@@H](C)O)[C@@H](C)CC, also called compound No. 68) [[Abz(2)24, Cha27,36, Ile28,31, Trp30]-PYY(24-36)]
– | – | 24 | 14 | Bz-RAYINLI[Thr(Me)]RQRY-NH2 (also called compound No. 74) [4-Aminomethylbenzoyl-[Ala26, Ile28,31, Thr(Me)32]-PYY(25-36)]
– | – | 2.9 | 4.8 | Bz-RH[Ala(piperidin-4-yl)]INWITRQR[Cha]-NH2 (also: Ala(4Pip) D or L form not assigned (later peak), Ala(4Pip) is any of D-form and L-form; also called compound No. 66) [Benzoyl-[Ala(4Pip)27, Ile28,31, Trp30, Cha36]-PYY(25-36)]
– | – | 1.1 | 1.9 | Amidino-G[Inp]RH[Cha]INWITRQR[Cha]-NH2 (SMILES CC[C@H](C)[C@H](NC(=O)[C@H](CC1CCCCC1)NC(=O)[C@H](Cc1c[nH]cn1)NC(=O)[C@H](CCCNC(=N)N)NC(=O)C1CCN(C(=O)CNC(=N)N)CC1)C(=O)N[C@@H](CC(N)=O)C(=O)N[C@@H](Cc1c[nH]c2ccccc12)C(=O)N[C@H](C(=O)N[C@H](C(=O)N[C@@H](CCCNC(=N)N)C(=O)N[C@@H](CCC(N)=O)C(=O)N[C@@H](CCCNC(=N)N)C(=O)N[C@@H](CC1CCCCC1)C(N)=O)[C@@H](C)O)[C@@H](C)CC, also called compound No. 96) [Amidino-[Gly23, Pic(4)24, Cha27,36, Ile 28,31, Trp30]-PYY(23-36)]

The remaining lines, values behind:

Molecule | GBA EC50 Ratio (vs PYY(3-36)), [35S]GTPγS [1] | IC50 Ratio (vs PYY(3-36)) [2] | GBA EC50 Ratio (vs PYY(3-36)), [35S]GTPγS (human Y2 receptor [3]) [ratio] | IC50 Ratio (vs PYY(3-36)) (human Y2 receptor [4]) [ratio]
[Lys(Ac)23, D-Pro24, Cha27,28,36, Aib31]-PYY(23-36) (peptide) | 2.5 | 5.4 | – | –
Ac-[Ala26, Ile28,31, Arg(Me)35]-PYY(22-36) (peptide) | 13 | 50 | – | –
[N(2-hydroxyethyl)Gly23, D-Pro24, Cha27,28,36, Aib31]-PYY(23-36) (peptide) | 1.2 | 2 | – | –
Ac-[Hse23, D-Pro24, Cha27,28,36, Aib31]-PYY(23-36) (peptide) | 1.6 | 2.5 | – | –
Ac-[D-Pro24, Pya(4)26, Cha27,36, Aib28,31, Lys30]-PYY(23-36) (peptide) | 1.3 | 1.8 | – | –
[βAla23, D-Pro24, Cha27,28,36, Aib31]-PYY(23-36) (peptide) | 1.2 | 1.7 | – | –
Ac-[Iva23, D-Pro24, Cha27,28,36, Aib31]-PYY(23-36) (peptide) | 17 | 13 | – | –
N-4-Pyridiniyl-[Pic(4)23, D-Pro24, Cha27,28,36, Aib31]-PYY(23-36) (peptide) | 3.4 | 4 | – | –
[N(iBu)Gly23, D-Pro24, Cha27,28,36, Aib31]-PYY(23-36) (peptide) | 2.4 | 5.8 | – | –
[4Amb]RAYINLI[Nva]RQRY-NH2 (N-terminus assumed; SMILES CCC[C@H](NC(=O)[C@@H](NC(=O)[C@H](CC(C)C)NC(=O)[C@H](CC(N)=O)NC(=O)[C@@H](NC(=O)[C@H](Cc1ccc(O)cc1)NC(=O)[C@H](C)NC(=O)[C@H](CCCNC(=N)N)NC(=O)c1ccc(CN)cc1)[C@@H](C)CC)[C@@H](C)CC)C(=O)N[C@@H](CCCNC(=N)N)C(=O)N[C@@H](CCC(N)=O)C(=O)N[C@@H](CCCNC(=N)N)C(=O)N[C@@H](Cc1ccc(O)cc1)C(N)=O, also called compound No. 61) [4-Aminomethylbenzoyl-[Ala26, Ile28,31, Nva32]-PYY(25-36)] | – | – | 17 | 29
Bz-RH[Cha]INLRTRQR[Cha]-NH2 (SMILES CC[C@H](C)[C@H](NC(=O)[C@H](CC1CCCCC1)NC(=O)[C@H](Cc1c[nH]cn1)NC(=O)[C@H](CCCNC(=N)N)NC(=O)c1ccccc1)C(=O)N[C@@H](CC(N)=O)C(=O)N[C@@H](CC(C)C)C(=O)N[C@@H](CCCNC(=N)N)C(=O)N[C@H](C(=O)N[C@@H](CCCNC(=N)N)C(=O)N[C@@H](CCC(N)=O)C(=O)N[C@@H](CCCNC(=N)N)C(=O)N[C@@H](CC1CCCCC1)C(N)=O)[C@@H](C)O, also called compound No. 65) [Benzoyl-[Cha27,36, Ile28, Arg31]-PYY(25-36)] | – | – | 16 | 15
Ac-YYASLRAYINLITRQRY-NH2 (also called compound No. 5) [Ac-[Ala26, Ile28,31]-PYY(20-36)] | – | – | 8.1 | 9.8
Bz-R[Ser(Me)″][Cha][Cha]NL[Aib]TRQR[Cha]-NH2 (SMILES COC[C@H](NC(=O)[C@H](CCCNC(=N)N)NC(=O)c1ccccc1)C(=O)N[C@@H](CC1CCCCC1)C(=O)N[C@@H](CC1CCCCC1)C(=O)N[C@@H](CC(N)=O)C(=O)N[C@@H](CC(C)C)C(=O)NC(C)(C)C(=O)N[C@H](C(=O)N[C@@H](CCCNC(=N)N)C(=O)N[C@@H](CCC(N)=O)C(=O)N[C@@H](CCCNC(=N)N)C(=O)N[C@@H](CC1CCCCC1)C(N)=O)[C@@H](C)O) [Benzoyl-[Ser(Me)26, Cha27,28,36, Aib31]-PYY(25-36)] | 8.7 | 18 | – | –
[4Amb]RAYIN[Phe(4-F)]ITRQRY-NH2 (N-terminus assumed; SMILES CC[C@H](C)[C@H](NC(=O)[C@H](Cc1ccc(O)cc1)NC(=O)[C@H](C)NC(=O)[C@H](CCCNC(=N)N)NC(=O)c1ccc(CN)cc1)C(=O)N[C@@H](CC(N)=O)C(=O)N[C@@H](Cc1ccc(F)cc1)C(=O)N[C@H](C(=O)N[C@H](C(=O)N[C@@H](CCCNC(=N)N)C(=O)N[C@@H](CCC(N)=O)C(=O)N[C@@H](CCCNC(=N)N)C(=O)N[C@@H](Cc1ccc(O)cc1)C(N)=O)[C@@H](C)O)[C@@H](C)CC, also called compound No. 58) [4-Aminomethylbenzoyl-[Ala26, Ile28,31, Phe(4F)30]-PYY(25-36)] | – | – | 2.9 | 4.1
[4Amb]RAYINLITRQR[Tyr(Me)]-NH2 (N-terminus assumed; SMILES CC[C@H](C)[C@H](NC(=O)[C@H](Cc1ccc(O)cc1)NC(=O)[C@H](C)NC(=O)[C@H](CCCNC(=N)N)NC(=O)c1ccc(CN)cc1)C(=O)N[C@@H](CC(N)=O)C(=O)N[C@@H](CC(C)C)C(=O)N[C@H](C(=O)N[C@H](C(=O)N[C@@H](CCCNC(=N)N)C(=O)N[C@@H](CCC(N)=O)C(=O)N[C@@H](CCCNC(=N)N)C(=O)N[C@@H](Cc1ccc(OC)cc1)C(N)=O)[C@@H](C)O)[C@@H](C)CC, also called compound No. 7) [4-Aminomethylbenzoyl-[Ala26, Ile28,31, Tyr(Me)36]-PYY(25-36)] | – | – | 4.7 | 5
[4Amb]RAYIN[2Nal]ITRQRY-NH2 (N-terminus assumed; SMILES CC[C@H](C)[C@H](NC(=O)[C@H](Cc1ccc(O)cc1)NC(=O)[C@H](C)NC(=O)[C@H](CCCNC(=N)N)NC(=O)c1ccc(CN)cc1)C(=O)N[C@@H](CC(N)=O)C(=O)N[C@@H](Cc1ccc2ccccc2c1)C(=O)N[C@H](C(=O)N[C@H](C(=O)N[C@@H](CCCNC(=N)N)C(=O)N[C@@H](CCC(N)=O)C(=O)N[C@@H](CCCNC(=N)N)C(=O)N[C@@H](Cc1ccc(O)cc1)C(N)=O)[C@@H](C)O)[C@@H](C)CC, also called compound No. 56) [4-Aminomethylbenzoyl-[Ala26, Ile28,31, Nal(2)30]-PYY(25-36)] | – | – | 2.4 | 4.1
Bz-RH[Dap]INWITRQR[Cha]-NH2 (SMILES CC[C@H](C)[C@H](NC(=O)[C@H](CN)NC(=O)[C@H](Cc1c[nH]cn1)NC(=O)[C@H](CCCNC(=N)N)NC(=O)c1ccccc1)C(=O)N[C@@H](CC(N)=O)C(=O)N[C@@H](Cc1c[nH]c2ccccc12)C(=O)N[C@H](C(=O)N[C@H](C(=O)N[C@@H](CCCNC(=N)N)C(=O)N[C@@H](CCC(N)=O)C(=O)N[C@@H](CCCNC(=N)N)C(=O)N[C@@H](CC1CCCCC1)C(N)=O)[C@@H](C)O)[C@@H](C)CC, also called compound No. 67) [Benzoyl-[Dap27, Ile28,31, Trp30, Cha36]-PYY(25-36)] | – | – | 22 | 34
